Article doi:10.1101/2022.03.04.482944 (bioRxiv, 2022)

What was measured:
Test in all cases: Ligand Surface Binding Assay
[1] = molecular target: ACVR2A-Halo (human, UniProt P27037 20-513)
[2] = molecular target: T1, BMPR2-Halo (human, UniProt Q13873 27-1038)
T1 sequence (looked up): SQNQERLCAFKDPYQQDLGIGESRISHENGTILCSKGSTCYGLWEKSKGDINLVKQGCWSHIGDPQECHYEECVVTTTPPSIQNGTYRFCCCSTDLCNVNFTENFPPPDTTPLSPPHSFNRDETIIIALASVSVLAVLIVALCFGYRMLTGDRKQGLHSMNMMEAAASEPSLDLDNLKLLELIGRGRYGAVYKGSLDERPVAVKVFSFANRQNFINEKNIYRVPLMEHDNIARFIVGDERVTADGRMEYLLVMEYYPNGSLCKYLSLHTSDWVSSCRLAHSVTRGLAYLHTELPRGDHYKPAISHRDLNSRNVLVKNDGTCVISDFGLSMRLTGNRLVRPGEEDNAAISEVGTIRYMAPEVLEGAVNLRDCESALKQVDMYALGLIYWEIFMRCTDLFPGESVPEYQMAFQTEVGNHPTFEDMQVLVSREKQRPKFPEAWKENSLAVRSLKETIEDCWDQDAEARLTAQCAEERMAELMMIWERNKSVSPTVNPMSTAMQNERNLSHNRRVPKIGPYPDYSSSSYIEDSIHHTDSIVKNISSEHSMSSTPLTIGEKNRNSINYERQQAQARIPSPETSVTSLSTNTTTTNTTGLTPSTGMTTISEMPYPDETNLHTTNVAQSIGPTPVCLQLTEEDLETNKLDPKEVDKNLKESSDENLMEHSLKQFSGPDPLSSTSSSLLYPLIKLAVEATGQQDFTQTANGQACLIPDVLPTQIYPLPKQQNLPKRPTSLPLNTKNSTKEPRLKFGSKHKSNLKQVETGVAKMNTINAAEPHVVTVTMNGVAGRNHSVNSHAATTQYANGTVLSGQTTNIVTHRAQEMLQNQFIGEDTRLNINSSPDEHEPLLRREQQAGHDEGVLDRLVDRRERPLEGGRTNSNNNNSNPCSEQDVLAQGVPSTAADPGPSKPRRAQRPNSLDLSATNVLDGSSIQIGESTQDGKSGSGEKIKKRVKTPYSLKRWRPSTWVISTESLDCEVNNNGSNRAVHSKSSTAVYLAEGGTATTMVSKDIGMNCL

[3] = molecular target: ACVR2B-Halo (human, UniProt Q13705 19-512)
Chain of ACVR2B-Halo (Q13705 19-512): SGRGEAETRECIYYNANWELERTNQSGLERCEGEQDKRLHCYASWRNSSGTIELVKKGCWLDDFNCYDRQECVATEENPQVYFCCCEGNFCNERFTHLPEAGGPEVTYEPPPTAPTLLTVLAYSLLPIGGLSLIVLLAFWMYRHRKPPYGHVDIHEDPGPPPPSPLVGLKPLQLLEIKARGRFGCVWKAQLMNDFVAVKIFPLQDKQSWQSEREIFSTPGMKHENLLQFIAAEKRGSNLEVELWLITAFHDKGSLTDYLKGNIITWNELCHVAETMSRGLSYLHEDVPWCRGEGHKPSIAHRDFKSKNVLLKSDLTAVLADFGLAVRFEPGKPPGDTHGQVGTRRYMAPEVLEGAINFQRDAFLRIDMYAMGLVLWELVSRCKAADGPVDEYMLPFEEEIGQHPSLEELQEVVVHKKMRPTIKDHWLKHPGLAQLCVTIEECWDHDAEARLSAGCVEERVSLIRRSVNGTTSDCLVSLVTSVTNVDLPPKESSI

Chain of ACVR2A-Halo (P27037 20-513): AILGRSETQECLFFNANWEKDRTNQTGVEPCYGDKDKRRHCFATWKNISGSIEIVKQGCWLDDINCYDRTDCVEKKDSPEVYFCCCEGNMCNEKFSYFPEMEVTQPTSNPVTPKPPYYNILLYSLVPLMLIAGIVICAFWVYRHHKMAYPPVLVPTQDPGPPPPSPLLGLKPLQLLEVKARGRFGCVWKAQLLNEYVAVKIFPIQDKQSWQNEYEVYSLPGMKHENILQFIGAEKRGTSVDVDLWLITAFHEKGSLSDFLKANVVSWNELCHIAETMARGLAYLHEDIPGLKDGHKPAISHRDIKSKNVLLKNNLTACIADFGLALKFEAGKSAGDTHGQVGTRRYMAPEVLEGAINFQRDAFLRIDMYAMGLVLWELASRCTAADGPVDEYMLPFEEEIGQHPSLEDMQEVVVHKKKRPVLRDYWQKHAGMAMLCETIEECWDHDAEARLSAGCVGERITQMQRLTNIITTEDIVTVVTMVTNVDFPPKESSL

B1: Activin A-Cy5 (ligand, UniProt P08476 311-426, looked up)
chain: GLECDGKVNICCKKQFFVSFKDIGWNDWIIAPSGYHANYCEGECPSHIAGTSGSSLSFHSTVINHYRMRGHSPFANLKSCCVPTKLRPMSMLYYDDGQNIIKKDIQNMIVEECGCS
modifications: Cy5 label (NHS-activated Cy5, protein:dye ratio 1:2 in the labelling reaction)
In the case of B1, the “fold Activin A-Cy5 binding relative to untransfected cells” value [1] is reported as about 29 fold, the “fold Activin A-Cy5 binding relative to untransfected cells” value [2] is reported as about 27 fold and the “fold Activin A-Cy5 binding relative to untransfected cells” value [3] is reported as about 84 fold.
